Target: GST-Vif fusion protein (HIV-1 (HIV-1NL4-3)) (UniProt P12504)
Assay: Vif-Vif binding assay (GST pull-down) without peptide, set as 100%

Chain of in vitro translated ^35S-labeled HIV-1NL4-3 Vif protein, P12504 1-192 (other; ^35S-labeled (in vitro translation in the presence of ^35S-methionine); other documents disagree on this pair) (P12504 whole entry): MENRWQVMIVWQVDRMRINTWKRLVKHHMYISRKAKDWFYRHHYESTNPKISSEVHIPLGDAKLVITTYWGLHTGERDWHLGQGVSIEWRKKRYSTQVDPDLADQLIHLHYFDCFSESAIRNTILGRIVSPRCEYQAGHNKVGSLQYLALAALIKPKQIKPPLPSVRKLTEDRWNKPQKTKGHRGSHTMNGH
Chain of GST-Vif fusion protein (HIV-1 (HIV-1NL4-3)) (P12504 whole entry, the tested form may be a part): as the sequence (P12504 whole entry) above

Substance: in vitro translated ^35S-labeled HIV-1NL4-3 Vif protein, P12504 1-192 (other; ^35S-labeled (in vitro translation in the presence of ^35S-methionine); other documents disagree on this pair)
- ^35S-Vif binds with GST-Vif (%): 100%
